From patent US20030228608, “Method to enhance homologous recombination” (Promega Corporation, published 2003)

T1: RecA (Thermotoga maritima, UniProt P36203 P36203:1-356)
T1 sequence: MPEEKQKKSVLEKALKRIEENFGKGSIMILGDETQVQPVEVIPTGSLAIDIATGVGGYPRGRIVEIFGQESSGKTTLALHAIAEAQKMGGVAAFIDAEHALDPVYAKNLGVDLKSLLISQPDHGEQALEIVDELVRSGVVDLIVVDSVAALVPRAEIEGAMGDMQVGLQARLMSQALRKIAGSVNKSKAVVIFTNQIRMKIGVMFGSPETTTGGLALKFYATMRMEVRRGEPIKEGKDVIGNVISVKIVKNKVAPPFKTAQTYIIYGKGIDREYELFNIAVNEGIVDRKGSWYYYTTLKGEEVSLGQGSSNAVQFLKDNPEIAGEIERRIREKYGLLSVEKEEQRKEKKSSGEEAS

B1: 51-mer (ssDNA)
DNA: CAGTCGTTGCTGATTGGCGTTGCCTAATCCAGTCTGGCCCTGCACGCGCCG
modifications: [5'-F label (position 1)]
B2: 91-mer (ssDNA)
DNA: ACAACAACTGGCGGGCAAACAGTCGTTGCTGATTGGCGTTGCCTAATCCAGTCTGGCCCTGCACGCGCCGTCGCAAATTGTCGCGGCGAT
modifications: [1 (5'-fluorescein)]

Columns and labels:
RecA [1] = target: T1, RecA; test: EMSA; 75 C, 2 mM Mg acetate; slower assembly than 91-mer; more efficient than E. coli RecA; conditions: tags: untagged; expressed in E. coli; label: 5' fluorescein
Protocol: To detect recombinase coating of a substrate (nucleoprotein assembly), a gel shift assay with a labeled ssDNA may be employed. For example, 0.1 μM of a fluorescein-tagged 91-mer oligonucleotide (F-[…] […] GAT; SEQ ID NO: 1) was used as a substrate for coating by RecA. The coating buffer for E. coli RecA was 25 mM Tris acetate, pH 7.85, 15 mM potassium glutamate (K-Glu), 5 mM Mg acetate, and 2.5 mM DTT. The coating buffer for Thermotoga RecA was 25 mM Tris acetate, pH 8.0, 15 mM K-Glu, 2 mM Mg acetate, 2.5 mM DTT and 0.1% Triton. The coating buffer also included ATPyS (3 mM), or dATP and ATPγS at a ratio of 10:1 (3 mM and 0.3 mM, respectively). RecA was then added to the coating buffer containing the substrate at a ratio of 4 μM RecA for 10 μM of base. The E. coli RecA coating reaction was incubated for up to 60 minutes at 42° C. and the Thermotoga RecA coating reaction was incubated for up to 60 minutes at 75° C. (or 65° C.), although other temperatures may be employed. The tagged oligonucleotide was visualized and quantified using a FluorImager-SI and ImageQuant Software. […]

RecA [2] = target: T1, RecA; test: EMSA; nucleoprotein assembly; 75 C, 2 mM Mg acetate, ATPgammaS or dATP/ATPgammaS; more efficient than E. coli RecA; conditions: tags: untagged; expressed in E. coli; label: 5' fluorescein
Protocol: To detect recombinase coating of a substrate (nucleoprotein assembly), a gel shift assay with a labeled ssDNA may be employed. For example, 0.1 μM of a fluorescein-tagged 91-mer oligonucleotide (F-[…] […] GAT; SEQ ID NO: 1) was used as a substrate for coating by RecA. The coating buffer for E. coli RecA was 25 mM Tris acetate, pH 7.85, 15 mM potassium glutamate (K-Glu), 5 mM Mg acetate, and 2.5 mM DTT. The coating buffer for Thermotoga RecA was 25 mM Tris acetate, pH 8.0, 15 mM K-Glu, 2 mM Mg acetate, 2.5 mM DTT and 0.1% Triton. The coating buffer also included ATPyS (3 mM), or dATP and ATPγS at a ratio of 10:1 (3 mM and 0.3 mM, respectively). RecA was then added to the coating buffer containing the substrate at a ratio of 4 μM RecA for 10 μM of base. The E. coli RecA coating reaction was incubated for up to 60 minutes at 42° C. and the Thermotoga RecA coating reaction was incubated for up to 60 minutes at 75° C. (or 65° C.), although other temperatures may be employed. The tagged oligonucleotide was visualized and quantified using a FluorImager-SI and ImageQuant Software.

Binder | binding result (RecA [1]) | binding result (RecA [2])
GCTGATTGGCGTTGCCTAATCCAGTCTGGCCCTGC (ssDNA, [5'-F label (position 1)]) [35-mer] | binds | 
B1 | binds | 
B2 |  | binds
